Data as given in article PMC5820116 (SLAS discovery : advancing life sciences R & D, 2017).

Substrate: Nc1ncnc2c1ncn2[C@@H]1O[C@H](COP(=O)(O)OP(=O)(O)OP(=O)(O)O)[C@@H](O)[C@H]1O
Assay: ATP:PPi exchange steady-state kinetics
Assay type: biochemical, Pseudomonas aeruginosa
Conditions: Mg2+ active region of the catalytic domain formed by the three structural motifs

B1: Aspartyl-tRNA synthetase (AspRS) (Pseudomonas aeruginosa PAO1) (protein)
chain: MMRSHYCGQLNESLDGQEVTLCGWVHRRRDHGGVIFLDVRDREGLAQVVFDPDRAETFAKADRVRSEFVVKITGKVRLRPEGARNPNMASGSIEVLGYELEVLNQAETPPFPLDEYSDVGEETRLRYRFIDLRRPEMAAKLKLRARITSSIRRYLDDNGFLDVETPILGRPTPEGARDYLVPSRTYPGHFFALPQSPQLFKQLLMVAGFDRYYQIAKCFRDEDLRADRQPEFTQIDIETSFLDESDIIGITEKMVRQLFKEVLDVEFDEFPHMPFEEAMRRYGSDKPDLRIPLELVDVADQLKEVEFKVFSGPANDPKGRVAALRVPGAASMPRSQIDDYTKFVGIYGAKGLAYIKVNERAKGVEGLQSPIVKFIPEANLNVILDRVGAVDGDIVFFGADKAKIVCDALGALRIKVGHDLKLLTREWAPMWVVDFPMFEENDDGSLSALHHPFTSPKCTPAELEANPGAALSRAYDMVLNGTELGGGSIRIHDKSMQQAVFRVLGIDEAEQEEKFGFLLDALKYGAPPHGGLAFGLDRLVMLMTGASSIREVIAFPKTQSAGDVMTQAPGSVDGKALRELHIRLREQPKAE
In the case of B1, the Km is reported as 495 µM.
